The labels stand for the following.
B1: N183S, O00095 (parent)
chain: MKFLQVLPALIPAALAQTSCDQWATFTGNGYTVSNNLWGASAGSGFGCVTAVSLSGGASWHADWQWSGGQNNVKSYQNSQIAIPQKRTVNSISSMPTTASWSYSGSNIRANVAYDLFTAANPNHVTYSGDYELMIWLGKYGDIGPIGSSQGTVNVGGQSWTLYYGYNGAMQVYSFVAQTNTTNYSGDVKNFFNYLRDNKGYNAAGQYVLSYQFGTEPFTGSGTLNVASWTASIN

The variants in this data set derive from B1. Conditions: Hypocrea jecorina; pH 8; Thermal; CD; Bis-Tris propane ammonium acetate 0.05 M 0.05 M; reversible: No; structure 1H8V; whole UniProt chain shown.

This note sets out measurements from FireProtDB (doi:10.1110/ps.0237703).

On to MKFLQVLPALIPAALAQTSCDQWATFTGNGYTVSNNLWGASAGSGFGCVTAVSLSGGASWHADWQWSGGQNNVKSYQNSQIAIPQKRTVNSISSMPTTASWSYSGSNIRANVAYDLFTAANPNHVTYSGDYELMIWLGKYGDIGPIGSSQGTVNVGGQSWTLYYGYNGAMQVYSFVAQTNTTSYSGDVKNFFNYLRDNKGYNAAGQYVLSYQFGTEPFTGSGTLNVASWTASIN [N183S], for which the Tm turned out to be 54.6 °C and the “change of melting temperature, mutant - wild type (higher = more stable)” value (shortened to “change of melting temperature, mutant”) is 0.2 °C.
Regarding MKFLQVLPALIPAALAQTSCDQWATFTGNGYTVSNNLWGASAGSGFGCVTAVSLSGGASWHADWQWSGGQNNVKSYQNSQINIPQKRTVNSISSMPTTASWSYSGSNIRANVAYDLFTAANPNHVTYSGDYELMIWLGKYGDIGPIGSSQGTVNVGGQSWTLYYGYNGAMQVYSFVAQTNTTNYSGDVKNFFNYLRDNKGYNAAGQYVLSYQFGTEPFTGSGTLNVASWTASIN [A82N], the melting temperature (Tm) stood at 54.5 °C and the “change of melting temperature, mutant” value came to 0.1 °C.
As to MKFLQVLPALIPAALAQTSCDQWATFTGNGYTVSNNLWGASAGSGFGCVTAVSLSGGASWHADWQWSGGQNNVKSYQNSQIAIPQKRTVNSISSMPTTASWSYSGSNIRANVAYDLFTAANPNHVTYSGDYELMIWLGKYGDIGPIGSSQGTVNVGGQSWTLYYGYNGAMQVYSFVAQTNTTNYSGDVKNFFNYLRDNKGYNAGGQYVLSYQFGTEPFTGSGTLNVASWTASIN [A204G], the Tm came out at 54.9 °C and the “change of melting temperature, mutant” value amounted to 0.5 °C.
As for MKFLQVLPALIPAALAQTSCDQWATFTGNGYTVSNNLWGASAGSGFGCVTAVSLNGGASWHADWQWSGGQNNVKSYQNSQIAIPQKRTVNSISSMPTTASWSYSGSNIRANVAYDLFTAANPNHVTYSGDYELMIWLGKYGDIGPIGSSQGTVNVGGQSWTLYYGYNGAMQVYSFVAQTNTTNYSGDVKNFFNYLRDNKGYNAAGQYVLSYQFGTEPFTGSGTLNVASWTASIN [S55N], the Tm was determined as 54.9 °C and the “change of melting temperature, mutant” value is 0.5 °C.
In the same order, the values of MKFLQVLPALIPAALAQTSCDQWATFTGNGYTVSNNLWGASAGSGFGCVTAVSLSGAASWHADWQWSGGQNNVKSYQNSQIAIPQKRTVNSISSMPTTASWSYSGSNIRANVAYDLFTAANPNHVTYSGDYELMIWLGKYGDIGPIGSSQGTVNVGGQSWTLYYGYNGAMQVYSFVAQTNTTNYSGDVKNFFNYLRDNKGYNAAGQYVLSYQFGTEPFTGSGTLNVASWTASIN [G57A] are 56.9 °C and 2.5 °C.
In the case of MKFLQVLPALIPAALAQTSCDQWATFTGNGYTVSNNLWGASAGSGFGCVTAVSLSGGASWHADWQWSGGQNNVKSYQNSQIAIPQKRTVNSIGSMPTTASWSYSGSNIRANVAYDLFTAANPNHVTYSGDYELMIWLGKYGDIGPIGSSQGTVNVGGQSWTLYYGYNGAMQVYSFVAQTNTTNYSGDVKNFFNYLRDNKGYNAAGQYVLSYQFGTEPFTGSGTLNVASWTASIN [S93G], the midpoint of thermal melting (Tm) was found to be 54.5 °C and the “change of melting temperature, mutant” value was 0.1 °C.
As to MKFLQVLPALIPAALAQTSCDQWATFSGNGYIVSNNLWGASAGSGFGCVTAVSLSGGASWHADWQWSGGQNNVKSYQNSQIAIPQKRTVNSISSMPTTASWSYSGSNIRANVAYDLFTAANPNHVTYSGDYELMIWLGKYGDIGPIGSSQGTVNVGGQSWTLYYGYNGAMQVYSFVAQTNTTNYSGDVKNFFNYLRDNKGYNAAGQYVLSYQFGTEPFTGSGTLNVASWTASIN [T27S T32I], the Tm came out at 55.5 °C and the “change of melting temperature, mutant” value turned out to be 1.1 °C.
On to MKFLQVLPALIPAALAQTSCDQWATFTGNGYTVSNNLWGASAGSGFGCVTAVSLSGGASWHADWQWSGGQNNVKSYQNSQIAIPQKRTVNSISSMPTTASWSYSGSNIRANVAYDLFTAANPNHVTYSGDYELMIWLGKYGDIGPIGSSQGTVNVGGQTWTLYYGYNGAMQVYSFVAQTNTTNYSGDVKNFFNYLRDNKGYNAAGQYVLSYQFGTEPFTGSGTLNVASWTASIN [S159T], for which the Tm is 54.9 °C and the “change of melting temperature, mutant” value stood at 0.5 °C.
On to MKFLQVLPALIPAALAQTSCDQYATFTGNGYTVSNNLWGASAGSGFGCVTAVSLSGGASWHADWQWSGGQNNVKSYQNSQIAIPQKRTVNSISSMPTTASWSYSGSNIRANVAYDLFTAANPNHVTYSGDYELMIWLGKYGDIGPIGSSQGTVNVGGQSWTLYYGYNGAMQVYSFVAQTNTTNYSGDVKNFFNYLRDNKGYNAAGQYVLSYQFGTEPFTGSGTLNVASWTASIN [W23Y], for which the Tm turned out to be 53.4 °C and the “change of melting temperature, mutant” value is -1 °C.
For MKFLQVLPALIPAALAQTSCDQWATFTGNGYTVSNNLWGASAGSGFGCVTAVSLSGGASWHADWQWSGGQNNVKSYQNSQIAIPQKRTVNSISSMPTTASWSYSGSNIRANVAYDLFTAANPNHVTYSGDYELMIWLGKYGDIGPIGSSQGTVNVGGQSWTLYYGYNGAMQVYSFVAQSNTTNYSGDVKNFFNYLRDNKGYNAAGQYVLSYQFGTEPFTGSGTLNVASWTASIN [T179S] the same measures were 54.7 °C and 0.3 °C.
In the case of MKFLQVLPALIPAALAQTSCDQWATFTGNGYTVSNNLWGASAGSGFGCVTVVSLSGGASWHADWQWSGGQNNVKSYQNSQIAIPQKRTVNSISSMPTTASWSYSGSNIRANVAYDLFTAANPNHVTYSGDYELMIWLGKYGDIGPIGSSQGTVNVGGQSWTLYYGYNGAMQVYSFVAQTNTTNYSGDVKNFFNYLRDNKGYNAAGQYVLSYQFGTEPFTGSGTLNVASWTASIN [A51V], the midpoint of thermal melting (Tm) was 62.1 °C and the “change of melting temperature, mutant” value stood at 7.7 °C.
MKFLQVLPALIPAALAQTSCDQWATFTGNGYTVSNNLWGASAGSGFGCVTSVSLSGGASWHADWQWSGGQNNVKSYQNSQIAIPQKRTVNSISSMPTTASWSYSGSNIRANVAYDLFTAANPNHVTYSGDYELMIWLGKYGDIGPIGSSQGTVNVGGQSWTLYYGYNGAMQVYSFVAQTNTTNYSGDVKNFFNYLRDNKGYNAAGQYVLSYQFGTEPFTGSGTLNVASWTASIN [A51S]: the midpoint of thermal melting (Tm) is 50.4 °C and the “change of melting temperature, mutant” value was -4 °C.
Regarding MKFLQVLPALIPAALAQTSCDQWATFTGNGYTVSNNLWGASAGSGFGCVTAVSLSGGASWHADWQWSGGQNNVKSYQNVQIAIPQKRTVNSISSMPTTASWSYSGSNIRANVAYDLFTAANPNHVTYSGDYELMIWLGKYGDIGPIGSSQGTVNVGGQSWTLYYGYNGAMQVYSFVAQTNTTNYSGDVKNFFNYLRDNKGYNAAGQYVLSYQFGTEPFTGSGTLNVASWTASIN [S79V], the Tm was determined as 53.6 °C and the “change of melting temperature, mutant” value is -0.8 °C.
Turning to MKFLQVLPALIPAALAQTSCDQWATFTGNGYTVSNNLWGASAGSGFGCVTAVSLSGGASWHADWQWSGGQNNVKSYQNSQIAIPQKRTVNSISSMPTTASWSYSGSDIRANVAYDLFTAANPNHVTYSGDYELMIWLGKYGDIGPIGSSQGTVNVGGQSWTLYYGYNGAMQVYSFVAQTNTTNYSGDVKNFFNYLRDNKGYNAAGQYVLSYQFGTEPFTGSGTLNVASWTASIN [N107D], the melting temperature (Tm) was 54.9 °C and the “change of melting temperature, mutant” value was determined as 0.5 °C.
